In experiment [1] the target is DNP(3)-BSA (bovine). Kind of experiment: SPR (BIAcore 2000), antibody captured on anti-human IgG Fc surface, DNP-BSA injected; apparent constants. For orientation: SPR reads the build-up and loss of mass on a sensor chip optically.
In experiment [2] the target is DNP(31)-BSA (bovine) (UniProt P02769). The description is as above.
Experiment [3] deals with human Kv1.1 (human) (UniProt Q09470). Kind of experiment: cell-based or functional assay.
The target of experiment [4] is human Kv1.3 (human) (UniProt P22001). Kind of experiment: cell-based or functional assay.

As usually defined, the koff is the first-order rate constant of dissociation. For orientation: kon means the rate constant with which the complex forms.

No end group written: not given here.

Sequence of DNP(3)-BSA (bovine) (P02769 25-607 limits assumed, form in doubt): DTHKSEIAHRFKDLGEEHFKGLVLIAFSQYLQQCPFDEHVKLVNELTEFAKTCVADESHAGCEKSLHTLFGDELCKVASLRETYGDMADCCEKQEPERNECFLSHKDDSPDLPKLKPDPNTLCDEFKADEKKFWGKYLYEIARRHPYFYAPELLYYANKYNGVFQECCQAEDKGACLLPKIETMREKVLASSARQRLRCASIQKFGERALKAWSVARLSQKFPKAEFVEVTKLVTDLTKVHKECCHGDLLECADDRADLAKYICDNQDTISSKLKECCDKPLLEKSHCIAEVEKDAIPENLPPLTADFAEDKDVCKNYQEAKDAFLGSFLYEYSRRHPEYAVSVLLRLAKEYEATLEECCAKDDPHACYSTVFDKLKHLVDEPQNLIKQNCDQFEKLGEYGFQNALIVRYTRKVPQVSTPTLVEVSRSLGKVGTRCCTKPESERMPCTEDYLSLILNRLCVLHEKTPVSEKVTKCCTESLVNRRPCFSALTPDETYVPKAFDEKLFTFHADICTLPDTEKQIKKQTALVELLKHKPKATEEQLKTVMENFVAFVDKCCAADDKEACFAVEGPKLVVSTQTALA
Sequence of DNP(31)-BSA (bovine) (P02769 25-607 limits assumed, form in doubt): as above
Sequence of human Kv1.3 (human) (P22001 whole entry): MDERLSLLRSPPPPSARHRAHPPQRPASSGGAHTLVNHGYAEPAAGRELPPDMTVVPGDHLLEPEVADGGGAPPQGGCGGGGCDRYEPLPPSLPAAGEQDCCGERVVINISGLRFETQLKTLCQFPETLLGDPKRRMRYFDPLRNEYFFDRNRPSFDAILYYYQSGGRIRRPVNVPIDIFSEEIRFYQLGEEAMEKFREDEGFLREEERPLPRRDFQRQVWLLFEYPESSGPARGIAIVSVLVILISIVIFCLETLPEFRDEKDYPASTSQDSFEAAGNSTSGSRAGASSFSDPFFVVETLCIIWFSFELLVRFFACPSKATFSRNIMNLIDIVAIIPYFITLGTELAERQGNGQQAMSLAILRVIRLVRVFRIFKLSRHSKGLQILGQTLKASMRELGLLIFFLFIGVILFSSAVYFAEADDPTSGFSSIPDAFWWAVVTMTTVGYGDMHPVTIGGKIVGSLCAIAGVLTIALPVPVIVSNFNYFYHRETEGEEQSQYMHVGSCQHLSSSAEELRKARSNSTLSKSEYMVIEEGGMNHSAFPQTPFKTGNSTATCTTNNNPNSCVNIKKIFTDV
Sequence of human Kv1.1 (human) (Q09470 whole entry): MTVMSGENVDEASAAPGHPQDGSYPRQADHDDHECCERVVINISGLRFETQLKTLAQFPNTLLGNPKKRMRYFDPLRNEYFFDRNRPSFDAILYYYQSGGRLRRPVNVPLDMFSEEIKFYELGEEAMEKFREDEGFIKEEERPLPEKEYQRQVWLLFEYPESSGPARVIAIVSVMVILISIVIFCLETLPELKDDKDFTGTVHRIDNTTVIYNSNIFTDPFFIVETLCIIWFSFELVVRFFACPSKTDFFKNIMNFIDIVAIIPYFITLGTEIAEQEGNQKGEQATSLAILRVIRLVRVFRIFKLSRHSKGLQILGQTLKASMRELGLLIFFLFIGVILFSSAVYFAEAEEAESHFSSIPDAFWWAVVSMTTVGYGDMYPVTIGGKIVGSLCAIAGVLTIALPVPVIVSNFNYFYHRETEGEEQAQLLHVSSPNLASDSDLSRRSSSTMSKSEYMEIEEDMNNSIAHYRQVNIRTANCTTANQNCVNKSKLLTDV

B1: aDNP 3B1 antibody (hybridoma) (antibody, human IgG2, kappa, V domains shown)
VH: QVQLQESGPGLVKPSETLSLTCTVSGGSISSYYWSWIRQPPGKGLEWIGYIYYSGNTNSNPSLKSRVTISVDTSKNQFSLKLSSVTAADTAVYYCARTYYDSSGYYYRAFDIWGQGTMVTVSS
VL: DIQMTQSPSSLSASEGDRVTITCRASQGIRNDLGWYQQKPGKAPKRLIYAASSLQSGVPLRFSGSGSGTEFTLTISSLQPEDFATYYCLQYNSYPWTFGQGTKVEIKR
Consider B1, for which, in experiment [1], the Kd was found to be 3 nM, the koff is 0.00036 s⁻¹ and the kon is 140000 M⁻¹ s⁻¹. In experiment [2], the Kd stood at 0.2 nM, the koff stood at 5.8e-05 s⁻¹ and the kon turned out to be 370000 M⁻¹ s⁻¹.

B2: aDNP 3B1 antibody (recombinant, IgG2) (antibody, V domains shown)
VH: QVQLQESGPGLVKPSETLSLTCTVSGGSISSYYWSWIRQPPGKGLEWIGYIYYSGNTNSNPSLKSRVTISVDTSKNQFSLKLSSVTAADTAVYYCARTYYDSSGYYYRAFDIWGQGTMVTVSS
VL: DIQMTQSPSSLSASEGDRVTITCRASQGIRNDLGWYQQKPGKAPKRLIYAASSLQSGVPLRFSGSGSGTEFTLTISSLQPEDFATYYCLQYNSYPWTFGQGTKVEIKR
As to B2, in experiment [2], the Kd was 0.7 nM, the koff is 0.00031 s⁻¹ and the association rate constant (kon) was determined as 420000 M⁻¹ s⁻¹.

B3: aDNP 3A1 antibody (hybridoma) (antibody, human IgG2, kappa, V domains shown)
VH: QVQLQESGPGLVKPSETLSLTCTVSGGSISHYYWSWIRQPPGKGLGWIGYIYYSGSTNYNPSLKSRVTISVDTSKNQFSLKLTSVTAADTAVYYCARARGDGYNYPDAFDIWGQGTMVTVSS
VL: DIQMTQSPSSVSASVGDRVTITCRASQGISNWLAWYQRKPGKAPKLLIYAASSLQSGVPSRFSGSGSGTDFTLTISSLQPEDFAAYYCQQASSFPWTFGQGTRVEIKR
For B3, in experiment [1], the Kd came to 526 nM, the koff was 0.00065 s⁻¹ and the kon worked out at 1200 M⁻¹ s⁻¹. Further, in experiment [2], the Kd worked out at 9 nM, the koff is 0.00031 s⁻¹ and the kon was 34000 M⁻¹ s⁻¹.
Molecule Fc-GGGGSGGGGSSCIDTIPKSRCTAFQCKHSMKYRLSFCRKTCGTC (Fc fusion, ends and bridges not checked; also: homodimer via Fc) [Bivalent Fc-L10-ShK[2-35] homodimer] showed a Kv1.1 (PX) IC50 in experiment [3] of 0.411 nM. In experiment [4], the Kv1.1/Kv1.3 Selectivity Ratio by PX turned out to be 3.54; the Kv1.3 (PX) IC50 worked out at 0.116 nM; the Potency Relative to ShK (WB, IL2) was found to be 8.73.
On to Fc-GGGGSGGGGSRSCIDTIPKSRCTAFQCKHSMKYRLSFCRKTCGTC (Fc fusion, ends and bridges not checked; also: homodimer via Fc) [Bivalent Fc-L10-ShK[1-35] homodimer], for which the Kv1.1 (PX) IC50 in experiment [3] worked out at 0.067 nM. In experiment [4], the Kv1.1/Kv1.3 Selectivity Ratio by PX came out at 4.47; the Kv1.3 (PX) IC50 is 0.015 nM; the Potency Relative to ShK (WB, IL2) was 5.76.
